Source: publication PMC5428420, “The trimer interface in the quaternary structure of the bifunctional prokaryotic FAD synthetase from Corynebacterium ammoniagenes” (Scientific Reports, 2017)

Biological target: the molecule itself
Experiment: SEC; oligomeric fractions, 15-20 µM protein, incubated 10 min at room temperature in buffer only (20 mM PIPES, 0.8 mM MgCl2, pH 7.0), then passed again through Superdex 200 10/300 GL

B1: FAD synthetase from Corynebacterium ammoniagenes, wild type (enzyme)
chain: MDIWYGTAAVPKDLDNSAVTIGVFDGVHRGHQKLINATVEKAREVGAKAIMVTFDPHPVSVFLPRRAPLGITTLAERFALAESFGIDGVLVIDFTRELSGTSPEKYVEFLLEDTLHASHVVVGANFTFGENAAGTADSLRQICQSRLTVDVIDLLDDEGVRISSTTVREFLSEGDVARANWALGRHFYVTGPVVRGAGRGGKELGFPTANQYFHDTVALPADGVYAGWLTILPTEAPVSGNMEPEVAYAAAISVGTNPTFGDEQRSVESFVLDRDADLYGHDVKVEFVDHVRAMEKFDSVEQLLEVMAKDVQKTRTLLAQDVQAHKMAPETYFLQAES
notes: Bifunctional FAD synthetase (N-terminal FMNAT module, C-terminal RFK module) from Corynebacterium ammoniagenes, CaFADS; Plasmid pET28a-CaFADS; The size of the oligomers was not resolved by gel filtration; also called CaFADS; WT CaFADS; source: E. coli BL21(DE3), purified (20% ammonium sulfate fractionation, phenyl-sepharose, DEAE-cellulose)
monomer/oligomer ratio: ~0.8
